Source: paper PMC3777911 (PLoS ONE, 2013)

T1: His-Sec31A (human, UniProt O94979 1-1220)
T1 construct: human Sec31A; also called wt Sec31A; source: co-expressed with HA-Sec13 in ES-SF9 cells (Bac-to-Bac baculovirus)
T1 sequence (looked up): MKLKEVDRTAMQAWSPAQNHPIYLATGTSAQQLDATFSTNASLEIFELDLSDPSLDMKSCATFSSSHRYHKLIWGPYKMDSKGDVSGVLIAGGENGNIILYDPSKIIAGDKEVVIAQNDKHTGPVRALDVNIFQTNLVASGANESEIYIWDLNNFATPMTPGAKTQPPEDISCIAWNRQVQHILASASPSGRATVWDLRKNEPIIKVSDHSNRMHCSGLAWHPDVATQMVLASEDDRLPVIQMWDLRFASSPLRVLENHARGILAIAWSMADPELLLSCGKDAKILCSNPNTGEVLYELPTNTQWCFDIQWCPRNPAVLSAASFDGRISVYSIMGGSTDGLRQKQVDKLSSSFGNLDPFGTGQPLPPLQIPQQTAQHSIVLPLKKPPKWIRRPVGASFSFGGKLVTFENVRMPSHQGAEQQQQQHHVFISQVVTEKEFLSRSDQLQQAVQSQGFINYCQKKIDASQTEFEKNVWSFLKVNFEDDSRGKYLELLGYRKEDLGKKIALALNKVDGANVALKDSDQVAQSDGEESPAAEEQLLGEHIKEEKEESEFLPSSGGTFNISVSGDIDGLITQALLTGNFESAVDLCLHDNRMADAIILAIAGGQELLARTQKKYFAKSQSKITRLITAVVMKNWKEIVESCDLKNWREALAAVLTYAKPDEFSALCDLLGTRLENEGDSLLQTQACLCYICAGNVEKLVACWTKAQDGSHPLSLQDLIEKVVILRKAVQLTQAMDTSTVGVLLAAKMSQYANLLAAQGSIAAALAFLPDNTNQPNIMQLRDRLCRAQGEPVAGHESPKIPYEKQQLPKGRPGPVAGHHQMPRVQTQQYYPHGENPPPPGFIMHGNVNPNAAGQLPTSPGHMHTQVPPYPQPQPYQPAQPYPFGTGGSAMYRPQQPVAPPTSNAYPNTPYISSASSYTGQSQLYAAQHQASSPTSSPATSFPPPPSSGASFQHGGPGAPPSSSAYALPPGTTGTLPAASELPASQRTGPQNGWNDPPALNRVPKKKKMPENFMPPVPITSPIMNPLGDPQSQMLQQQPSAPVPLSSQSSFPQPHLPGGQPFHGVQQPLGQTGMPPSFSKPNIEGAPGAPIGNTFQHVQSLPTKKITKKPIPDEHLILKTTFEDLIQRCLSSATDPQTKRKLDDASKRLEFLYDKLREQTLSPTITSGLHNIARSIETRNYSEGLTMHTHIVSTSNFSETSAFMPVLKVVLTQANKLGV


How the values were obtained:
[1] = biological target: T2, HA-Sec13/His-Sec31A complex (outer COPII coat), wild type ( | human, UniProt P55735 1-322; O94979 1-1220); experiment: pull-down; His-tagged Sec31A (Sec13/Sec31A) immobilised on Nickel beads, recombinant ALG-2 versions added, in the presence of Ca2+; eluates on SDS-PAGE, SyproRed; ratios from fluorescence intensity; conditions: both partners purified
T2 construct: Sec13, mammalian COPII outer coat protein; human Sec31A; also called Sec13/31A; Sec13/Sec31A (wt); source: co-expressed in ES-SF9 cells (Bac-to-Bac baculovirus), purified (Ni-NTA)

[2] = biological target: T1, His-Sec31A; experiment: co-purification (Ni-NTA affinity chromatography); the two chains co-expressed in ES-SF9 cells; complex purified on Ni-NTA through the His tag of Sec31A or Sec24; purified Sec13/Sec31A collected again on Ni beads, SyproRed; conditions: partners not purified

Row | Binder | stoichiometry N [1] | stoichiometry N [2]
1 | ALG-2 (product of the apoptosis linked gene-2), recombinant wild type (natural protein, UniProt P12815 1-191, looked up, also called wt ALG-2; rALG-2; source: recombinant, purified as previously described [16]) MAAYSYRPGPGGGPGPAAGAALPDQSFLWNVFQRVDKDRSGVISDNELQQALSNGTWTPFNPVTVRSIISMFDRENKAGVNFSEFTGVWKYITDWQNVFRTYDRDNSGMIDKNELKQALSGFGYRLSDQFHDILIRKFDRQGRGQIAFDDFIQGCIVLQRLTDIFRRYDTDQDGWIQVSYEQYLSMVFSIV | ~2 ALG-2 per Sec31A (molar ratio) | –
2 | HA-Sec13 (natural protein, UniProt P55735 1-322, looked up, Sec13, mammalian COPII outer coat protein; source: co-expressed with His-Sec31A or His-Sec31ADelABD in ES-SF9 cells (Bac-to-Bac baculovirus)) MVSVINTVDTSHEDMIHDAQMDYYGTRLATCSSDRSVKIFDVRNGGQILIADLRGHEGPVWQVAWAHPMYGNILASCSYDRKVIIWREENGTWEKSHEHAGHDSSVNSVCWAPHDYGLILACGSSDGAISLLTYTGEGQWEVKKINNAHTIGCNAVSWAPAVVPGSLIDHPSGQKPNYIKRFASGGCDNLIKLWKEEEDGQWKEEQKLEAHSDWVRDVAWAPSIGLPTSTIASCSQDGRVFIWTCDDASSNTWSPKLLHKFNDVVWHVSWSITANILAVSGGDNKVTLWKESVDGQWVCISDVNKGQGSVSASVTEGQQNEQ | – | ~1 Sec13 per Sec31A (molar ratio)
